Reference: article PMC7481185

Target: enolase (AP-MS) (Arabidopsis thaliana) (UniProt P25696)
UniProt P25696, sequence (P25696 whole entry): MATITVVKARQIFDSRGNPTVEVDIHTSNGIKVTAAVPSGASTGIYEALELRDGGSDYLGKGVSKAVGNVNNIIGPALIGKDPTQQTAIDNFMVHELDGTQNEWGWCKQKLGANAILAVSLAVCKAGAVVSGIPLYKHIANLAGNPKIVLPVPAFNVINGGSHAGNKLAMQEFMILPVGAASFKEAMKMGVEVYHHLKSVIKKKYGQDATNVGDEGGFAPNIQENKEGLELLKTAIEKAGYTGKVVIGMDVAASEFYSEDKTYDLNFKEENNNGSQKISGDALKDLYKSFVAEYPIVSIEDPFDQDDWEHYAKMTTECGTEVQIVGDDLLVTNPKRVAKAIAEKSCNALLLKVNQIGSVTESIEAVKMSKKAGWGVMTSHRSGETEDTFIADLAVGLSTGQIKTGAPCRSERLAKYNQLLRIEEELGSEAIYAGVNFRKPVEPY

efficiency (Kcat/KM) of the conversion of 3PGA to pyruvate, NADH-coupled assay: isolated mitochondria (complex) against total extra-plastidial extract (free enzymes): 19 times
Substance: phosphoglycerate mutase 1 (AP-MS) (enzyme)
